According to publication PMC2768378 (2009):

Target: H2A.Z-H2B (Saccharomyces cerevisiae, UniProt Q12692)
Experiment: relaxation dispersion NMR

B1: Chz1 (protein)
chain: SDEAKEKRELESQKESSHNKSEKSVEPKPKRRRRRNYDDYDAEVAKEETKAKNGLTKSENNGTVEDSESDMDDAKLDALMGNEGEEEEDDLAEIDTSNIITSGRRTRGKVIDYKKTAEELDKKEPSTGSKDDVGYGEKEEDDEDEEDDDFKE
- Kd: ~200 nM
